Assay results published in patent publication EP4582447A1 (Quaerite Biopharm Research (Beijing) Co., Ltd., dated 2025).
Like-named read-outs stand apart in the source and are kept apart here. Values belong to the binder of their own block, whether it stands above or below them.

Tests used:
[1] = target: 3% milk powder (negative control); assay: phage ELISA, 3% milk powder coated (negative control), anti-M13(HRP)
Human VEGFA165 [2] = target: T1, Human VEGFA165 (human, UniProt P15692-4 27-191); assay: phage ELISA, VEGFA coated 0.5 µg/mL, anti-M13(HRP)
Target sequence in this assay (P15692 other isoform, or with tags, fused parts or gaps limits assumed): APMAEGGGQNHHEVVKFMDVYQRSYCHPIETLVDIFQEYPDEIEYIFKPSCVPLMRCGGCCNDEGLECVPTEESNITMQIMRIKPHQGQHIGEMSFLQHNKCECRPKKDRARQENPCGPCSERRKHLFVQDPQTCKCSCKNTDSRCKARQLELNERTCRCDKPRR

Human VEGFA165 [3] = target: T1, Human VEGFA165; assay: ELISA, VEGFA coated 0.3 µg/mL, anti-His detection
Target sequence in this assay (P15692 other isoform, or with tags, fused parts or gaps limits assumed): as above

Human VEGFA165 [4] = target: T1, Human VEGFA165; assay: competition ELISA on coated VEGFA, competitor VEGFR2-ECD-Fc 2 nM
Target sequence in this assay (P15692 other isoform, or with tags, fused parts or gaps limits assumed): as above

Human VEGFA165 [5] = target: T1, Human VEGFA165; assay: phage ELISA, VEGFA coated 0.5 µg/mL, anti-M13(HRP)
Target sequence in this assay (P15692 other isoform, or with tags, fused parts or gaps limits assumed): as above

Human VEGFA165 [6] = target: T1, Human VEGFA165; assay: competition ELISA on coated VEGFA, competitor VEGFR2-ECD-Fc 1 nM
Target sequence in this assay (P15692 other isoform, or with tags, fused parts or gaps limits assumed): as above

Human VEGFA165 [7] = target: T1, Human VEGFA165; assay: cell-based or functional assay
Target sequence in this assay (P15692 other isoform, or with tags, fused parts or gaps limits assumed): as above

Human VEGFA165 [8] = target: T1, Human VEGFA165; assay: phage ELISA, VEGFA coated 0.5 µg/mL, anti-M13(HRP); remark: listed apart in the source
Human VEGFA165 [9] = target: T1, Human VEGFA165; assay: SPR Biacore 8K, VEGFA165 amine-coupled on CM5, nanobody as analyte, 1:1 model
Human VEGFA165 [10] = target: T1, Human VEGFA165; assay: competition ELISA on coated VEGFA, competitor VEGFR2-ECD-Fc 1 nM; remark: listed apart in the source
Human VEGFA165 [11] = target: T1, Human VEGFA165; assay: ELISA, VEGFA coated 0.3 µg/mL, anti-His detection; remark: listed apart in the source
Human VEGFA165 [12] = target: T1, Human VEGFA165; assay: SPR, VEGFA165 on CM5

OD450 [1]: 0.0473 OD450
OD450 (Human VEGFA165 [2]): 1.36 OD450
B1: V6 (VHH)
VHH: QLQLVESGGGSVQPGGSLRLSCEVSGRTFSSYTMGWFRQAPGKEREFVVAISKGGYKYDTVSLEARFTISKDNTKNTVYLQMNSLKPEDTAVYYCAGTRAYGSSRLKLADTYEYWGQGTQVTVSS

EC50 (Human VEGFA165 [3]): 2.04 nM
IC50 (Human VEGFA165 [4]): 31.7 nM
Maximum inhibition rate (%) (Human VEGFA165 [4]): 84.8%
B2: V15-2m (VHH)
VHH: EVQLVESGGGLVQPGGSLRLSCAASGRTFASYTMGWFRQAPGKEREFVVAISKGGYKYDSVSLEARFTISRDNSKNTVYLQMNSLRPEDTAVYYCAGTRAYGSSRLRLAETYEYWGQGTLVTVSS
notes: Humanized V15

OD450 (Human VEGFA165 [5]): 3.47 OD450
IC50 (Human VEGFA165 [6]): 16.3 nM
Maximum inhibition rate (%) (Human VEGFA165 [6]): 80.4%
OD450 [1]: 0.0403 OD450
B3: V17 (VHH)
VHH: QLQLVESGGGSVQPGGSLRLSCEVSGRTFSSYTMGWFRQAPGKEREFVVAISKGGYKYDTVSLEARFTISKDNTKNTVYLQMNSLKPEDTAVYYCAATRAYGSSRLRLAKTYEYWGQGTQVTVSS
notes: Purified with C-terminal GGGGS-6×His

IC50 (pM), inhibition of VEGFA-stimulated HUVEC proliferation (CCK-8) (Human VEGFA165 [7]): 1270 pM
Maximum inhibition rate (%) of HUVEC proliferation (Human VEGFA165 [7]): 87.4%
OD450 (Human VEGFA165 [8]): 2.68 OD450
Kd (Human VEGFA165 [9]): 0.214 nM
koff (Human VEGFA165 [9]): 0.000136 s⁻¹
kon (Human VEGFA165 [9]): 635000 M⁻¹ s⁻¹
IC50 (Human VEGFA165 [6]): 3.54 nM
Maximum inhibition rate (%) (Human VEGFA165 [6]): 96.5%
IC50 (Human VEGFA165 [10]): 5.72 nM
Maximum inhibition rate (%) (Human VEGFA165 [10]): 94.8%
OD450 [1]: 0.0436 OD450
EC50 (Human VEGFA165 [11]): 0.6 nM
fold difference of KD from the positive control BI-VEGF ab (Human VEGFA165 [12]): < 3 fold
B4: V30 (VHH)
VHH: QLQLVESGGGSVQPGGSLRLSCEVSGRTFSSYTMGWFRQAPGKGREFVVAISKGGYKYDAVSLEARFTISKDNTKNTVYLQMNSLKPEDTAVYYCAATRAYGSSRLRLAKTYEYWGQGTQVTVSS
notes: Purified with C-terminal GGGGS-6×His; also called candidate antibody V30

EC50 (Human VEGFA165 [3]): 1.42 nM
IC50 (Human VEGFA165 [4]): 26 nM
Maximum inhibition rate (%) (Human VEGFA165 [4]): 87.2%
B5: V15-4m (VHH)
VHH: EVQLVESGGGLVQPGGSLRLSCAASGRTFASYTMGWFRQAPGKEREFVVAISKGGYKYDSVSLEARFTISRDNAKNTVYLQMNSLRPEDTAVYYCAGTRAYGSSRLRLAETYEYWGQGTLVTVSS
notes: Humanized V15

EC50 (Human VEGFA165 [3]): 2.05 nM
B6: V40-3H-4m (VHH)
VHH: EVQLVESGGGLVQPGGSLRLSCAASGRTFSSYTMGWFRQAPGKEREFVVAISKGGYKYNAVSLEARFTISRDNAKNTVYLQMNSLRPEDTAVYYCASTRAYGSSRLRLAKTYEYWGQGTLVTVSS
notes: Humanized V40

EC50 (Human VEGFA165 [3]): 1.64 nM
B7: V40-3H-2m (VHH)
VHH: EVQLVESGGGLVQPGGSLRLSCAASGRTFSSYTMGWFRQAPGKEREFVVAISKGGYKYNAVSLEARFTISRDNSKNTVYLQMNSLRPEDTAVYYCAATRAYGSSRLRLAKTYEYWGQGTLVTVSS
notes: Humanized V40

OD450 (Human VEGFA165 [5]): 1.87 OD450
IC50 (pM), inhibition of VEGFA-stimulated HUVEC proliferation (CCK-8) (Human VEGFA165 [7]): 7120 pM
Maximum inhibition rate (%) of HUVEC proliferation (Human VEGFA165 [7]): 84.2%
Kd (Human VEGFA165 [9]): 0.277 nM
koff (Human VEGFA165 [9]): 9.61e-05 s⁻¹
kon (Human VEGFA165 [9]): 347000 M⁻¹ s⁻¹
IC50 (Human VEGFA165 [6]): 3.89 nM
Maximum inhibition rate (%) (Human VEGFA165 [6]): 94.6%
OD450 [1]: 0.0126 OD450
IC50 (Human VEGFA165 [4]): 29.3 nM
Maximum inhibition rate (%) (Human VEGFA165 [4]): 71.6%
EC50 (Human VEGFA165 [11]): 0.89 nM
fold difference of KD from the positive control BI-VEGF ab (Human VEGFA165 [12]): < 3 fold
B8: V15 (VHH)
VHH: QLQLVESGGGSVQPGGSLRLSCEVSGRTFASYTMGWFRQAPGKEREFVVAISKGGYKYDSVSLEARFTISKDNTKNTVYLQMNSLKPEDTAVYYCAGTRAYGSSRLRLAETYEYWGQGTQVTVSS
notes: Purified with C-terminal GGGGS-6×His; also called candidate antibody V15

EC50 (Human VEGFA165 [3]): 2.82 nM
B9: V40-4H-2m (VHH)
VHH: EVQLVESGGGLVQPGGSLRLSCAASGRTFTSYTMGWFRQAPGKEREFVVAISKGGYKYNAVSLEARFTISRDNSKNTVYLQMNSLRPEDTAVYYCAATRAYGSSRLRLAKTYEYWGQGTLVTVSS
notes: Humanized V40

EC50 (Human VEGFA165 [3]): 1.38 nM
B10: V30-3H-2m (VHH)
VHH: EVQLVESGGGLVQPGGSLRLSCAASGRTFSSYTMGWFRQAPGKGREFVVAISKGGYKYDAVSLEARFTISRDNSKNTVYLQMNSLRPEDTAVYYCAATRAYGSSRLRLAKTYEYWGQGTLVTVSS
notes: Humanized V30

EC50 (Human VEGFA165 [3]): 2.34 nM
B11: V40-4H-4m (VHH)
VHH: EVQLVESGGGLVQPGGSLRLSCAASGRTFTSYTMGWFRQAPGKEREFVVAISKGGYKYNAVSLEARFTISRDNAKNTVYLQMNSLRPEDTAVYYCASTRAYGSSRLRLAKTYEYWGQGTLVTVSS
notes: Humanized V40
